System: Bacillus subtilis
Assay: cleaved RNA product abundance (RNA/gDNA barcode ratio) relative to median wild-type variant (ratio to wild type); higher = more accumulation of the downstream cleavage product
How it was run: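 In LB at 37°C, B. subtilis cultures went from OD600 0.0003 to 0.3. Their chromosomes held barcoded reporter mRNAs, truncated aprE or tetM, with RNase Y cleavage-site windows mutagenized via oligos at a 9% error rate. Cleaved RNA, chosen by gel, was reverse transcribed and barcode-sequenced alongside genomic DNA barcodes with UMI collapsing, giving a per-construct RNA:gDNA ratio scaled to the median construct with the unmutated site. This scaled ratio is termed cleaved product abundance.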

[1] = experiment (reporter, strain, medium): exp 4a: truncated aprE reporter, strain BJT201 with 2% xylose (RNase J1 expressed), cleavage site: cggR-gapA (positions -7 to +36 mutated)
[2] = experiment (reporter, strain, medium): exp 2b: truncated aprE reporter, strain BJT200, cleavage site: cggR-gapA (positions -7 to +36 mutated)
[3] = experiment (reporter, strain, medium): exp 8a: truncated aprE reporter, strain BJT201 with 2% xylose (RNase J1 expressed), cleavage site: glnRA (positions -5 to +31 mutated)
[4] = experiment (reporter, strain, medium): exp 6: tetM reporter, strain 168, cleavage site: cggR-gapA (positions -7 to +36 mutated)

Sequence | cleaved RNA product abundance [1] | cleaved RNA product abundance [2] | other results
ACAGACGAAGGAGCCGCAAACAAGTTATTAAGGGATGAATATTCCCTCAATATAAATATCTCTCACTTATTTAAA | 0.608 |  | 
ACAGACGAAGGAGCCGCAAAGAAGTTATTAAGAGATGAAAAATCCCTCAATATAAATATCTCTCACTTATTTAAA | 0.18 | 0.119 | 
CGACATGTCCCGCTTCTTTCATTAATCCGTTAGCAATTGTTTTGCTATAGACATTTACCTTTTAAGAGGAGGAAT |  |  | cleaved RNA product abundance [3]: 0.345
ACAGACGAAGGAGCCGCAAAAAAGTTATTAAGGGATGAATAATCCCTCAATATAAATATCTCTCACTTATTTAAA | 1.04 | 1.06 | cleaved RNA product abundance [4]: 1.04
ACAGACGAAGGAGCCGCAAAGAAGTTATTACGGGATGAATAATACCTCAATATAAATATCTCTCACTTATTTAAA | 0.112 |  | 
ACAGACGAAGGAGCCGCAAAGAGGTTATTAAGGGATGAATAATCCGTCAATATAAATATCTCTCACTTATTTAAA | 0.296 |  | 
CGACATGTCCCGCTTCTTTCATTAACCCGTTAGCAACTGTTTTGCCATATACATTTACCTTTTAAGAGGAGGAAT |  |  | cleaved RNA product abundance [3]: 0.158
ACAGACGAAGGAGCCGCAAAGAAGTAATTAAGGGATGAATAATCCCTCTATATAAATATCTCTCACTTATTTAAA | 0.193 |  | 
ACAGACGAAGGAGCCGCAAAGAAGTTATTAAGGAATGAATAATCCCTCAATATAAGTATCTCTCACTTATTTAAA | 0.0312 |  | 
ACAGACGAAGGAGCCGCAAAAAAGTTATTAAGAGATGAATAATCCCTCAATATAAATATCTCTCACTTATTTAAA | 0.133 | 0.126 | cleaved RNA product abundance [4]: 0.0928
ACAGACGAAGGAGCCGCAAAGAACTTATTAACGGATGAATAATCCCTCAATATAAATATCTCTCACTTATTTAAA | 0.112 |  | 
ACAGACGAAGGAGCCGCAAAGAAGTTATTCAGGGATAAATAATCCCTCAATATAAATATCTCTCACTTATTTAAA | 1.1 |  | 
CGACATGTCCCGCTTCTTTCATTATTCCGTTAGCAAATGTTGTGCTATATACATTTACCTTTTAAGAGGAGGAAT |  |  | cleaved RNA product abundance [3]: 0.444
ACAGACGAAGGAGCCGCAAAGAAGTTATTAAGGAATGACTAATCCCTCAATATAAATATCTCTCACTTATTTAAA | 0.103 |  | 
ACAGACGAAGGAGCCGCAAAGAAGTTATTAAGGGATGAATAAACCCTCAATATAATTATCTCTCACTTATTTAAA | 0.33 | 0.293 | 
ACAGACGAAGGAGCCGCAAAGAAGTTATTAAGGGATGAATAATCCCTCATATAAATATCTCTCACTTATTTAAAG | 0.256 | 0.394 | 
ACAGACGAAGGAGCCGCAAAGAAGTTATTAAGGCATGATTAATCCCTCAATATAAATATCTCTCACTTATTTAAA | 0.15 | 0.125 | 
CGACATGTCCCGCTTCTTTCATTAATCAGTTAGCAACTATTTTGCTATATACATTTACCTTTTAAGAGGAGGAAT |  |  | cleaved RNA product abundance [3]: 1.97
CGACATGTCCCGCTTCTTTCATTAATCCGTTAGCAACTGTTTAGATATATACATTTACCTTTTAAGAGGAGGAAT |  |  | cleaved RNA product abundance [3]: 0.297
ACAGACGAAGGAGCCGCAAATAAGTTATTAAGGGATGAATAATCCCTCGATATAAATATCTCTCACTTATTTAAA |  | 0.459 | 
ACAGACGAAGGAGCCGCAAAGAAGTTATTAAGGGATCAATATTCCCTCAATATAAATATCTCTCACTTATTTAAA |  | 0.709 | 
ACAGACGAAGGAGCCGCAAAGAAGTGATTAAGGGATGAATAATCGCTCAATATAAATATCTCTCACTTATTTAAA | 0.0548 |  | 
CGACATGTCCCGCTTCTTTCATTAATCCGTTAGCAACTGTTCTGCTATATATATTTACCTTTTAAGAGGAGGAAT |  |  | cleaved RNA product abundance [3]: 0.554
ACAGACGAAGGAGCCGCAAAGAAGTTATTAAGTAATGAATAACCCCTCAATATAAATATCTCTCACTTATTTAAA | 0.127 | 0.084 | 
ACAGACGAAGGAGCCGCAAAGAAGTTATTAAGGGATGAATATTCCCTCAAAATAAATATCTCTCACTTATTTAAA | 0.224 | 0.231 | 
ACAGACGAAGGAGCCGCAAAGAAGTTATTAAGGGATTAATAATCCCTCAATATAAAGATCTCTCACTTATTTAAA | 0.818 | 0.486 | 
CGACATGTCCCGCTTCTTTCATTAATGCGTTAGCAACTGTTTTGCTATATACATTTACCTTTTAAGAGGAGGAAT |  |  | cleaved RNA product abundance [3]: 0.633
ACAGACGAAGGAGCCGCAAATAAGTTATTAAGGGATGAATAATCCTTCAATATAAATATCTCTCACTTATTTAAA |  | 0.395 | 
ACAGACGAAGGAGCCGCAAAGAAGTTATTAAGTGATGAATAATCCCTCAATATAAATAACTCTCACTTATTTAAA | 0.119 |  | 

From the supplement of paper PMC11780869
